Data published in patent publication US20230087785A1, “Leucine-Rich Repeat Kinase 2 Allosteric Modulators” (VIB VZW, priority 2020, published 2023).

Molecular target: T1, LRRK2(G2019S) (Homo sapiens, UniProt Q5S007, G2019S/M2397T/R50H)
T1 construct: SF tag (FLAG + Twin-Strep); expressed in transfected cells; host or cells: HEK 293T
Experiment: In cellulo phospho-Rab / LRRK2 autophosphorylation assay in HEK293T cells
Assay type: cell-based
Conditions: HEK 293T cells co-expressing LRRK2(G2019S), Rab29 and Nb-GFP; for influence on LRRK2 kinase activity compared to the controls: Western blot
Experimental: (FIGS. 2A-2C) LRRK2(G2019S) and its effector Rab29 were overexpressed together with GFP-fused Nbs (“Fluobody”) in HEK293T cells. A negative control, where no Nb is overexpressed (“No Nb”) is also included. […] In rows labeled “pLRRK2”, LRRK2 pS1292 levels are determined by Western Blot using a site-specific anti-pLRRK2(pS1292) antibody (Abcam, ab203181) (shown at different times of development). In the rows labeled “pRAB10”, endogenous pT72-Rab10 levels are determined by Western Blot using the MJFF/Abcam antibody MJF-R21 (Abcam, ab230261) (shown at different times of development). The three lower rows contain controls of LRRK2 (rat anti-LRRK2, 24D8), Fluobody (rat anti-GFP) and Rab10 (rabbit anti-Rab10) expression levels. (FIG. 2D) Based on the results of panels (FIGS. 2A-2C) the Nbs can be divided into 4 functional groups, with group 1: Nbs that inhibit both LRRK2 autophosphorylation and Rab10 phosphorylation in cells; group 2: Nbs that inhibit only Rab10 phosphorylation; group 3: Nbs that activate LRRK2 kinase activity; group 4: Nbs that have no consistent/clear effect on LRRK2 kinase activity.
To assess the influence of the Nbs on LRRK2 kinase activity we monitored two physiologically and disease relevant activities of LRRK2: phosphorylation of the endogenous substrate Rab10 at position T72 and LRRK2 autophosphorylation at position S1292 [25-30]. […] In our cellular assay we thus co-expressed LRRK2(G2019S), Rab29 and the different Nb-GFP fusions in HEK 293T cells (FIG. 2a-c).
HEK 293T cells were cultured in DMEM (supplemented with 10% Fetal Bovine Serum, […] L-Glutamine and 0.5% Pen/Strep). For the assay, the cells were seeded onto six-well plates and transfected at a confluency of 50-70% with the individual Nb-GFP expression constructs, SF-tagged LRRK2(G2019S) and FLAG-HA Rab29 using a self-made polyethylenimine (PEI)-based transfection reagent. After 48 hrs cells were lysed in lysis buffer [30 mM Tris-HCL (pH7.4), 150 mM NaCl, 0.5% Nonident-P40, complete protease inhibitor cocktail, phosphatase inhibitor cocktail II & III (all Sigma)]. Lysates were cleared by centrifugation at 10,000×g and adjusted to a protein concentration of 1 μg/μl in 1× Laemmli Buffer. Samples were subsequently subjected to SDS PAGE and Western Blot analysis to determine LRRK2 pS1292 and Rab10 T72 phosphorylation levels, as described below. Total LRRK2 and Rab10 levels were determined as a reference.
For western blot analysis, protein samples were separated by SDS-PAGE using NuPAGE 10% Bis-Tris gels (Invitrogen) and transferred onto PVDF membranes (Thermo Fisher). To allow simultaneous probing for LRRK2 on the one hand and Rab and the Nb-GFP fusions on the other hand, membranes were cut horizontally at the 140 kDa MW marker band. After blocking non-specific binding sites with 5% non-fat dry milk in TBST (1 h, RT) (25 mM Tris, pH 7.4, 150 mM NaCl, 0.1% Tween-20), membranes were incubated overnight at 4° C. with primary antibodies at dilutions specified below. Phospho-specific antibodies were diluted in TBST/5% BSA (Roth GmbH). Non-phospho-specific antibodies were diluted in TBST/5% non-fat dry milk powder (BioRad). Phospho-Rab10 levels were determined by the site-specific rabbit monoclonal antibody anti-pRAB10([…]) (Abcam, ab230261) and LRRK2 autophosphorylation was determined by the site-specific rabbit monoclonal antibody anti-pLRRK2(pS1292) (Abcam, ab203181), both at a dilution of 1:2,000. Total LRRK2 levels were determined by the in-house rat monoclonal antibody anti-pan-LRRK2 (clone 24D8; 1:10,000). Total Rab10 levels were determined by the rabbit monoclonal antibody anti-RAB10/ERP13424 (Abcam, ab181367) at a dilution of 1:5,000. Nb-GFP fusion proteins were detected using the rat monoclonal antibody anti-GFP (clone 3H9, ChromoTec) at a dilution of 1:2,000. For detection, goat anti-rat IgG or anti-rabbit IgG HRP-coupled secondary antibodies (Jackson ImmunoResearch) were used at a dilution of 1:15,000 in TBST/5% non-fat dry milk powder. […]

T1 sequence (Q5S007 whole entry R50H/G2019S/M2397T): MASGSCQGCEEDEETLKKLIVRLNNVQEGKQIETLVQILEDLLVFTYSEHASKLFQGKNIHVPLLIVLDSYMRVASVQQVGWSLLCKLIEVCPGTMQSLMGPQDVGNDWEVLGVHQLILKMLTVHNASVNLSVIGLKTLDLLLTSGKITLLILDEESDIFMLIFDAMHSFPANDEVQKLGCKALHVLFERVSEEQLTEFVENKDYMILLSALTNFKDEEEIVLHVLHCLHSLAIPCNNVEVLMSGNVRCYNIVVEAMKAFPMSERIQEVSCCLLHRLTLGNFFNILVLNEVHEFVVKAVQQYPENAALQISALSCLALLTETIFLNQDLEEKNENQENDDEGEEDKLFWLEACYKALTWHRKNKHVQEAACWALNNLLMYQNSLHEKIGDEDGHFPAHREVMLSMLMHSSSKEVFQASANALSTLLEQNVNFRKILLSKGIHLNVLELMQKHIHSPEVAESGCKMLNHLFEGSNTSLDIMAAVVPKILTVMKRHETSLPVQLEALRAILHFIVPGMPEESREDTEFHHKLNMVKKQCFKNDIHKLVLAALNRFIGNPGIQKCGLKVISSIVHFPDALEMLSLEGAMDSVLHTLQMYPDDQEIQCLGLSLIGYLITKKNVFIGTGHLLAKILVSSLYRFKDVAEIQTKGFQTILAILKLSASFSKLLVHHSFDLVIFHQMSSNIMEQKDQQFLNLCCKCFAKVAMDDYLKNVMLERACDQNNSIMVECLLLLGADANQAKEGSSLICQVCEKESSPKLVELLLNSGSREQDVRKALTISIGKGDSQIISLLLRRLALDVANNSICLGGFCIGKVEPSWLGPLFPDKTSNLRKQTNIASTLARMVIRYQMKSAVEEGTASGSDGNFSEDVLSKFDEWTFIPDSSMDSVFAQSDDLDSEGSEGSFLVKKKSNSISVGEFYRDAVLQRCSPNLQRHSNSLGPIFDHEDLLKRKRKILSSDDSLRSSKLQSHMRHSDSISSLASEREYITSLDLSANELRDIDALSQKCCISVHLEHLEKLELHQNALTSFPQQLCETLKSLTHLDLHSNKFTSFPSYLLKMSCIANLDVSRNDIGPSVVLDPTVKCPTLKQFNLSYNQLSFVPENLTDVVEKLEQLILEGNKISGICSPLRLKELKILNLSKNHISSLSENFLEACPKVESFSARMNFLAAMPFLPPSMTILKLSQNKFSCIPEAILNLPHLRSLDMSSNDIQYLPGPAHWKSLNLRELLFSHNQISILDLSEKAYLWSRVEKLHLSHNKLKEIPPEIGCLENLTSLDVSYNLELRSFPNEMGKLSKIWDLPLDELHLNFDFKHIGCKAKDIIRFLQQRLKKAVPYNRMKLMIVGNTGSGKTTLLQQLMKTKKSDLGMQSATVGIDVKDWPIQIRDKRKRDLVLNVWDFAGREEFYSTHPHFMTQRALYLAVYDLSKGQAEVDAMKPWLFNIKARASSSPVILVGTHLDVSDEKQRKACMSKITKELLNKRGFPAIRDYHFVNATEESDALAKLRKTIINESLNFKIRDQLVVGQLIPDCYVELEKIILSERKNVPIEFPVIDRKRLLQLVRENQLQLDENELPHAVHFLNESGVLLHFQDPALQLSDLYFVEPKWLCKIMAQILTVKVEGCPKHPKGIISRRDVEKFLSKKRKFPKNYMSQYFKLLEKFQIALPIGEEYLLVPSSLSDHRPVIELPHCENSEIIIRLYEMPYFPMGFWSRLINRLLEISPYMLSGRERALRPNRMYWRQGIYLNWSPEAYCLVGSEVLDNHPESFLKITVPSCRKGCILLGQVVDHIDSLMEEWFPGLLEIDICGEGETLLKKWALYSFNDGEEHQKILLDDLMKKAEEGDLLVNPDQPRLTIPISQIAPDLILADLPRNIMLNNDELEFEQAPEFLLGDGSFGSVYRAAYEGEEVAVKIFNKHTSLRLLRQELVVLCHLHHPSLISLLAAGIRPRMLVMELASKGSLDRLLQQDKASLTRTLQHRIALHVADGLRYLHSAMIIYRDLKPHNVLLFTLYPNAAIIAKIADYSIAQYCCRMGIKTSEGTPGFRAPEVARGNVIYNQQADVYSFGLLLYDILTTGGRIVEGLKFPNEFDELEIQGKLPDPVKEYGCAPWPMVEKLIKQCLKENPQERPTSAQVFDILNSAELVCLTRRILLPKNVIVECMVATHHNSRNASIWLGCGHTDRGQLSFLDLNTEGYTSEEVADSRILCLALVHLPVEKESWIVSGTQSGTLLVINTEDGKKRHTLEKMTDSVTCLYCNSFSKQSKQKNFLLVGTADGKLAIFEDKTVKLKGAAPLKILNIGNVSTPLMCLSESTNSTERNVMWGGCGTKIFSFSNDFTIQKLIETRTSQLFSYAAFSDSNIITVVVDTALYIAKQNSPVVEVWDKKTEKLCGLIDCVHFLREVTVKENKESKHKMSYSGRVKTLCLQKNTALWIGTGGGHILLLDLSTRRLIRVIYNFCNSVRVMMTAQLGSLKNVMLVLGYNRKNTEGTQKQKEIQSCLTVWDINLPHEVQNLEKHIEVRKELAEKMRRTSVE

Molecule | LRRK2 autophosphorylation at position S1292 | influence on LRRK2 kinase activity compared to the controls | Rab10 phosphorylation at position T72 (endogenous Rab10)
Nb3: LRRK2-specific Nanobody, SEQ ID NO: 11 (protein, Nanobody CA12614) VHH: MAQVQLVESGGGLVQPGGSLRLSCAASGSIFRRNAMGWYRQVTGKERELVAGITSGGYTNYRDFVKGRFTISRDNAKNTVYLQMNNLKPEDTAVYYCNLLSEMLQTVWGQGTQVTVSS | somewhat stronger inhibitory effect towards LRRK2 autophosphorylation | no influence on LRRK2 kinase activity | 
Nb28: LRRK2-specific Nanobody, SEQ ID NO: 18 (protein, Nanobody CA13617) VHH: MAQVQLVESGGGLVQAGGSLRLSCAASGIIFHWYDMDWYRQAPGKQRELVATITTGGRADYADFVKGRFSISRDNAKTTVYLQMNSLKPEDTAVYYCSFQDHVLRRWGQGTQVTVSS |  | significant increase of LRRK2 kinase activity | 
Nb10: LRRK2-specific Nanobody, SEQ ID NO: 15 (protein, Nanobody CA13599) VHH: MAQVQLVESGGGLVQPGGSLRLSCAASGSIFSIYAMGWYRQAPGKQRELVAAITSGGDTNYADSVKGRFTISRDNAKNTVYLQMNSLKPEDTAVYYCNADHTPAGTFQTFDYWGQGTQVTVSS |  | no influence on LRRK2 kinase activity | 
Nb13: LRRK2-specific Nanobody, SEQ ID NO: 16 (protein, Nanobody CA13602) VHH: MAQVQLVESGGGLVQPGGSLRLSCAASGSGFSIYAMGWARQAPGRQRELVAAITSGGSTNYADSVKGRFTISRDNAKNTVYLQMNSLKPEDTAVYYCNADITVVAGSTYDYWGQGTQVTVSS |  | no influence on LRRK2 kinase activity | 
Nb37: LRRK2-specific Nanobody, SEQ ID NO: 14 (protein, Nanobody CA14131) VHH: MAQVQLVESGGGLVQPGGSLRLSCAASGSVFSTNTMAWFRQAPGKQREWVGGITPGGFTNYINSVKGRFTISRDNANNTIYLQMSSLRPEDTAVYYCNTLSRMALWGQGTQVTVSS | somewhat stronger inhibitory effect towards LRRK2 autophosphorylation | no influence on LRRK2 kinase activity | 
Nb9: LRRK2-specific Nanobody, SEQ ID NO: 17 (protein, Nanobody CA13598) VHH: MAQVQLVESGGGLVQPGGSLRLSCAASGSIFSINAMGWYRQAPGKQRELVAAITSGGRTNYADSVRGRFTISRDHAKNTVYLQMNSLKPEDTAVYYCNAGDWQTMYDYWGQGTQVTVSS |  | no influence on LRRK2 kinase activity | 
Nb31: LRRK2-specific Nanobody, SEQ ID NO: 13 (protein, Nanobody CA13620) VHH: MAQVQLVESGGGLVQAGGSLRLSCATSGLTFGTYAMAWFRQAAEKEREFVAFISGRGGYRDYADSVKGRLTIFRDNAKNNAKNTVYLQMNNLKPEDTAVYYCAARQGSPVRSKEEYNNWGQGTQVTVSS |  | no influence on LRRK2 kinase activity | 
Nb41: LRRK2-specific Nanobody, SEQ ID NO: 12 (protein, Nanobody CA14136) VHH: MAQVQLVESGGGLVQAGGSLRLSCEASVRTFSFYSMGWFRQAPGKEREFVAAIRWTAGSTSYADIVKGRFTISRDNGKNTVVLQMNSLEPEDTGVYYCAAQRGYLVEAASREYDYWGQGTQVTVSS | inhibiting S1292 phosphorylation at a lesser extent | strongly decreased LRRK2 autophosphorylation and/or Rab10 phosphorylation | inhibit Rab10 phosphorylation
